Test results reported in article PMC5372380.

Molecular target: BG505 SOSIP.664 trimer, His-tagged (HIV-1 isolate BG505)
Assay: SPR

ACS202 Fab
stoichiometry N (mAb per trimer): 3
